This test relates to Molm13 AML cells. The experiment in a line: NSG mice with Molm13 AML cells and activated human T cells. Type of test: in vivo, mouse. The text has this: FIGS. 7A-N. Blocking anti-LILRB3 antibody prevents monocytic AML development. (FIG. 7A) Epitope binning of 30 high-affinity IgGs. (FIG. 7B) CFU assay of mouse MLL-AF9 AML cells in the presence of above IgGs (n=3 independent experiments). (FIG. 7C) Binding affinities of the two IgGs from bin #3. (FIG. 7D) Upper: Schematic of treatment. Lower: Percentages of GFP^+ MLL-AF9 mouse AIL cells in peripheral blood (PB), bone marrow (BM), spleen (SPL), and liver (LV) of mice transplanted with AML cells expressing B3-FL or B3delICD and injected with IgG or anti-LILRB3 #1 N297A (n=3 independent mice). (FIG. 7E) Overall survival of mice transplanted with indicated AML cells as above. (FIG. 7F) CFU assay of MLL-AF9 mouse AML cells expressing B3-FL or B3delICD in the presence of IgG or anti-LILRB3 #1 N297A (n=3 independent experiments) (FIG. 7G) Upper: Schematic of treatment. Recipient mice were injected with mouse IgG or anti-mCD8 to deplete CD8 T cells. Lower: Percentages of GFP^+ MLL-AF9 mouse AML cells in peripheral blood (PB), bone marrow (BM), spleen (SPL), and liver (LV) of mice transplanted with AML cells expressing B3-FL or B3delICD and injected with IgG or anti-LILRB3 #1 LALAPG (n=4 mice). (FIG. 7H) Survival of mice as in panel h (n=4 independent mice). (FIG. 7I) Upper: Schematic of treatment. Lower: Whole-body images of NSG mice transplanted with luciferase-expressing THP-1 cells and treated with IgG or anti-LILRB3 #1 N297A (#1NA). (FIG. 7J) Overall survival of the mice shown in panel h (n=3 independent mice). (FIG. 7K) Upper: Schematic of treatment. Lower: Whole-body images of NSG mice transplanted with luciferase-expressing Molm13 cells, injected with activated T cells, and treated with IgG or #1NA. (FIG. 7L) Luciferase signaling as a function of time in mice treated as described in panel k. (FIG. 7M) Overall survival of mice treated as described in panel k (n=3 independent mice). (FIG. 7N) Analyses of T cells in peripheral blood of mice treated as described in panel 1 at 22 days after Molm13 AML cell transplantation. Upper: Flow cytometry analyses. Lower: Plot of T cell percentages (n=3 independent mice). The data are presented as mean±s.e.m, and p values were calculated by two-tailed t-test except for FIG. 7E, FIG. 7H, FIG. 7J and FIG. 7M by log-rank test.
Mice. C57BL/6J and NOD-SCID IL2Rγ-null (NSG) mice were purchased from and maintained at the animal core facility of the University of Texas Southwestern Medical Center. GFP-specific TCR mice (Jedi mice, JAX lab stock No: 028062) were purchased from the Jackson Lab. C57BL/6J CD45.1 mice were injected intraperitoneally with 1×10^6 irradiated MLL-AF9 mouse AML cells (3000 cGy) and LPS or LPS alone as a control. The injection was repeated 10 days later. […]

B1: anti-LILRB3 #1 N297A: IgG #1 with Fc glycosylation N297A mutation, defective Fc-mediated effector functions (antibody, V domains shown)
VH: EVQLVESGGGVVQPGRSLRLSCAASGFTFSSYGMHWVRQAPGKGLEWVAFIRYDGSNKYYADSVKGRFTISRDNSKNTLYLQMNSLRAEDTAVYYCAKAGFSGWYYYGMDVWGQGTMVTVSS
VL: DIVMTQSPSSLSASVGDRLTITCRASQSISTYLNWYQQKPGKAPKLLIYGASSLQSGVPSRFSGSGSGTDFTLTISSLQPEDFATYFCQQSYGLPLTFGGGTKVDIK
B1: the “effect on mice without the injection of T cells” value (no T cells) is on record as “little effect”. Also, where the note is “peripheral blood, 22 days after Molm13 transplantation, versus IgG”, the “T cells in treated mice” value is listed as “significantly more T cells”. The “leukemia in one of the treated mice” value (with activated human T cells) was “largely eliminated”. The leukemia progression result (with activated human T cells, antibody at day 8, versus IgG) is “significantly slower”.

Source of the values: patent publication US20240101667A1, “METHODS FOR IDENTIFYING LILRB-BLOCKING ANTIBODIES” (THE BOARD OF REGENTS OF THE UNIVERSITY OF TEXAS SYSTEM, priority 2020, published 2024).
